Reference: the supplement of paper PMC7125110
± gives the standard error. Fewer inactive variants are shown than the library holds.

B1: glmS ribozyme (parent)
chain: AUAAAAGCGCCAGAACUACAGAAAUGUAGUUGACGAGGAGGAGGUUUAUCGAAUUUUCGGCGGAUGCCUCCAAA

Columns and labels:
Conditions in all cases: with glucosamine-6-phosphate
glucosamine-6-phosphate [1] = variants of: B1; assay: self-cleavage kobs at 40 uM GlcN6P; higher = faster cleavage; RNA array
In short: (§1)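 Tiles bearing barcoded ribozyme variants, transcribed in situ by E. coli RNA polymerase on sequenced MiSeq chips, were imaged over ~14 h at 37 °C using a hybridised Cy3 probe. Glucosamine-6-phosphate was supplied at 40 μM to 10 mM in HEPES/KCl/Mg(OAc)2 buffer. kobs came from one- or two-exponential decay fits to normalised per-tile medians, and weighted Michaelis–Menten fits then provided kcat and KM.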

glucosamine-6-phosphate [2] = variants of: B1; assay: self-cleavage kobs at 640 uM GlcN6P; higher = faster cleavage; RNA array
In short: as §1

glucosamine-6-phosphate [3] = variants of: B1; assay: self-cleavage kobs at 10000 uM GlcN6P; higher = faster cleavage; RNA array
In short: as §1

glucosamine-6-phosphate [4] = variants of: B1; assay: self-cleavage kobs at 160 uM GlcN6P; higher = faster cleavage; RNA array
In short: as §1

glucosamine-6-phosphate [5] = variants of: B1; assay: self-cleavage kobs at 2500 uM GlcN6P; higher = faster cleavage; RNA array
In short: as §1

Variant | self-cleavage kobs at 40 uM GlcN6P (glucosamine-6-phosphate [1]) [s⁻¹] | self-cleavage kobs at 640 uM GlcN6P (glucosamine-6-phosphate [2]) [s⁻¹] | self-cleavage kobs at 10000 uM GlcN6P (glucosamine-6-phosphate [3]) [s⁻¹] | self-cleavage kobs at 160 uM GlcN6P (glucosamine-6-phosphate [4]) [s⁻¹] | self-cleavage kobs at 2500 uM GlcN6P (glucosamine-6-phosphate [5]) [s⁻¹]
U30C A64C | < 1e-05 | < 1e-05 | < 1e-05 | – | –
C16U A33U C50G A64U U69A | 0.000139 ± 2.3e-05 | – | 0.000172 ± 3.4e-05 | – | –
U30G G66A | 0.000144 ± 3.9e-05 | – | – | – | –
U30A U49A G62U | < 1e-05 | – | – | – | –
G32C C34U | < 1e-05 | < 1e-05 | < 1e-05 | < 1e-05 | < 1e-05
U30C U49A G60C | < 1e-05 | < 1e-05 | – | – | –
A33U U56A C71A | < 1e-05 | – | – | – | –
U30C C50G U69A | 0.000101 ± 1.6e-05 | – | 0.000171 ± 2.6e-05 | – | –
G29U G44C U46A | < 1e-05 | – | – | – | –
C16A G37U G38A U45A U55G | < 1e-05 | – | < 1e-05 | – | –
C34U A48G | < 1e-05 | < 1e-05 | < 1e-05 | < 1e-05 | < 1e-05
C16G A53G C67A | 2.96e-05 ± 1.3e-05 | – | 0.000212 ± 5.9e-05 | – | –
G35A G59C | < 1e-05 | < 1e-05 | < 1e-05 | < 1e-05 | < 1e-05
U31A G37A C50G A53U C67U | 5.38e-05 ± 1.9e-05 | – | – | – | –
G32A G43C | < 1e-05 | – | – | < 1e-05 | < 1e-05
G29A G38U A39G C58A G66A | < 1e-05 | – | – | – | –
G32A C61G | < 1e-05 | – | – | – | –
G32U C61G | < 1e-05 | < 1e-05 | – | – | –
C16U U47G | 0.000296 ± 4.7e-05 | 0.00106 ± 0.00021 | 0.00951 ± 0.0018 | 0.000527 ± 0.00011 | 0.00142 ± 0.00037

Variant | self-cleavage kobs at 40 uM GlcN6P (glucosamine-6-phosphate [1]) [s⁻¹] | self-cleavage kobs at 640 uM GlcN6P (glucosamine-6-phosphate [2]) [s⁻¹] | self-cleavage kobs at 10000 uM GlcN6P (glucosamine-6-phosphate [3]) [s⁻¹] | self-cleavage kobs at 160 uM GlcN6P (glucosamine-6-phosphate [4]) [s⁻¹] | self-cleavage kobs at 2500 uM GlcN6P (glucosamine-6-phosphate [5]) [s⁻¹]
C34U C50G A53U C68G | 8.23e-05 ± 1.6e-05 | 0.000541 ± 0.00016 | 0.000111 ± 1.6e-05 | – | –
U31G C68A | < 1e-05 | 3.5e-05 ± 1.6e-05 | – | – | 8.49e-05 ± 1.9e-05
C34A U45A | < 1e-05 | < 1e-05 | – | < 1e-05 | < 1e-05
G29C G32C U57G | < 1e-05 | – | – | – | –
A33U G35U | < 1e-05 | < 1e-05 | < 1e-05 | – | < 1e-05
G32U U49C | < 1e-05 | < 1e-05 | – | < 1e-05 | < 1e-05
G29A G59U G63A A64U | < 1e-05 | – | < 1e-05 | – | –
C34U U55A G60U | < 1e-05 | < 1e-05 | – | – | –
C34A G38U U69A | < 1e-05 | – | – | – | –
C34G A64C U65A | < 1e-05 | – | – | – | –
A15U G38U U55C | < 1e-05 | – | – | – | –
C16G A48C | < 1e-05 | < 1e-05 | 4.28e-05 ± 1.7e-05 | < 1e-05 | –
U30C G59C | < 1e-05 | < 1e-05 | < 1e-05 | – | < 1e-05
U31G C34U G59A | < 1e-05 | < 1e-05 | < 1e-05 | – | < 1e-05
U30G U45A C71U | 0.000183 ± 4.7e-05 | – | 0.00282 ± 0.0011 | – | –
C16A G44C C50A | < 1e-05 | – | < 1e-05 | – | –
G29C C50G C61A U65C | 7.48e-05 ± 2.1e-05 | – | – | – | –
U30G A52C | < 1e-05 | < 1e-05 | – | < 1e-05 | < 1e-05
C34G U47G C68G | 0.000102 ± 2.7e-05 | 8.76e-05 ± 2.5e-05 | 7.34e-05 ± 1.5e-05 | 0.000631 ± 0.00031 | 7.01e-05 ± 2.4e-05

Variant | self-cleavage kobs at 40 uM GlcN6P (glucosamine-6-phosphate [1]) [s⁻¹] | self-cleavage kobs at 640 uM GlcN6P (glucosamine-6-phosphate [2]) [s⁻¹] | self-cleavage kobs at 10000 uM GlcN6P (glucosamine-6-phosphate [3]) [s⁻¹] | self-cleavage kobs at 160 uM GlcN6P (glucosamine-6-phosphate [4]) [s⁻¹] | self-cleavage kobs at 2500 uM GlcN6P (glucosamine-6-phosphate [5]) [s⁻¹]
G35A G44U U49A | < 1e-05 | – | – | – | –
A33U A42U U65G | < 1e-05 | – | < 1e-05 | – | –
U31C C34U U65C | < 1e-05 | – | < 1e-05 | – | < 1e-05
U30G G62C | < 1e-05 | < 1e-05 | < 1e-05 | < 1e-05 | –
U31A G43U | < 1e-05 | – | – | < 1e-05 | –
G29U U45G G59C C67U | < 1e-05 | – | < 1e-05 | – | –
C34U G37C G51A C68A | < 1e-05 | – | – | – | –
C16A G60U | < 1e-05 | < 1e-05 | < 1e-05 | < 1e-05 | < 1e-05
G35A U45A C71A | < 1e-05 | – | – | – | –
G29U U54G C58U U69G | 6.42e-05 ± 2.3e-05 | – | – | – | –
U30G U56G C58U U69C | < 1e-05 | – | – | – | –
G32C A39G G43A | < 1e-05 | – | – | – | –
C19U G38A | < 1e-05 | – | – | – | –
A33G A39U G41C | < 1e-05 | – | < 1e-05 | – | –
G32U A53G A64U | < 1e-05 | – | – | – | –
G32C A36G C61U U69A | < 1e-05 | – | – | – | –
G29A C34A G40U G41C G44U U49G C50A C71U | < 1e-05 | – | < 1e-05 | – | –
C34G G41A G44U A53U | < 1e-05 | – | < 1e-05 | – | –
